From US11466255B2, “Methods and compositions for converting non-endocrine pancreatic tissue into insulin-producing cells” (UNIVERSITY OF MIAMI, priority 2015, dated 2022)

Columns and labels:
Type in all cases: cell-based, human
hNEPT [1] = test: Glucose-stimulated insulin secretion (GSIS) and perifusion; conditions: day 12; 2.5 mM vs 20 mM glucose
Description: Glucose-stimulated insulin release (GSIR) and total insulin determination: GSIR was performed in six-well plate cultures. BMP-7-treated samples and untreated controls were washed twice with DMEM medium containing 2.5 mM glucose (Low glucose medium or L-medium). Upon addition of 2 ml of the same medium, the cells were cultured for 1 h at 37° C. to bring their insulin secretion to baseline. After 2 more washes, 1 ml of L-medium was added and the cells were returned to the incubator for 1 h. At the end of incubation period, the medium was collected and the cells exposed for 1 h to 1 ml of 20 mM glucose DMEM medium (high glucose medium or H-medium). After the collection of the H-medium supernatant, the cells were washed three times with L-medium and cultured again in low glucose conditions for 1 h. As before, supernatant was collected at the end of the incubation period. The second low glucose incubation is necessary to confirm that the cells are responding to glucose concentration changes in a physiological manner and not dumping insulin. […] The lysates and the supernatants from GSIR test were evaluated with ELISA for C-peptide content (Mercodia, Uppsala, Sweden) following manufacturer's instructions. […]
Perifusion studies: Perifusion was performed as described58. […] Insulin release was determined with the Human Insulin ELISA Mercodia Kit (Uppsala, Sweden) following the manufacturer's instructions.

[2] = tested on: P2RY1+/ALK3+ sorted cells; test: Sorted P2RY1+/ALK3+ cells treated with BMP-7 with or without dorsomorphin; conditions: 100 ng/μl BMP-7, qRT-PCR and IF
Description: A 2-color FACS selection for dissociated hNEPT (as well as collagenase-digested MPDs) that are positive for the surface markers P2RY1 and ALK3 (Life Span Biosciences) is conducted. This approach has already been successfully tested, as is shown herein. Sorted cells are treated with 100 ng/μl of BMP-7 with or without dorsomorphin, which inhibits BMP signaling. Additional aliquots receive no treatment. […] This is determined by qRT-PCR and IF as above, as well as ultrastructural analyses by TEM.

hNEPT [3] = test: Immunofluorescence / ImageJ quantification of C-peptide+ cells; conditions: 12 fields/sample, n=3; controls 8.15±0.92%, P<0.0001
Description: Immunofluorescence characterization of the insulin-expressing clusters was conducted. To rule out potential false-positives derived from the presence of residual insulin in the culture medium, we stained for C-peptide, which is present in pro-insulin and therefore indicates de novo synthesis of insulin. […] In order to quantify the number of C-peptide+ cells after BMP-7 treatment ImageJ and the FIJI Analyze particles feature was used. Using this software on an average of 12 fields/sample (n=3), the percentage of C-peptide+cells in hNEPT populations after BMP-7 treatment was determined to be 30.43±4.07% vs. 8.15±0.92% in controls (P<0.0001).
IF analysis and confocal microscopy: The present study was conducted on human pancreatic samples from cadaveric organ donors. […]
Imaging analysis: For general quantification purposes (e.g., percentage of C-peptide+ cells) we used ImageJ and the FIJI Analyze particles feature. […] Images were then binarized for quantification. The Watershed function was used on the DAPI channel to separate touching nuclei, which were subsequently counted by the Analyze particle command. Subsequently, we detected nuclei that were overlapping with C-peptide+ areas using the AND operator under the Image calculator feature of FIJI. Finally, we quantified the number of nuclei in the overlap area and calculated the ratio of the overlapping nuclei against the total nuclei.

B1: BMP-7: 35 kDa homodimeric protein of the TGF-β superfamily; FDA-approved agent; human mature chain SEQ ID NO:1/2 (protein, listed as Homo sapiens)
chain: IRSTGSKQRSQNRSKTPKNQEALRMANVAENSSSDQRQACKKHELYVSFRDLGWQDWIIAPEGYAAYYCEGECAFPLNSYMNATNHAIVQTLVHFINPETVPKPCCAPTQLNAISVLYFDDSSNVILKKYRNMVVRACGCH
modifications: homodimer; human mature chain of BMP-7 (NCBI Reference Sequence NM_001719.2) comprising peptide from 293-431
B1 was tested. Which “glucose responsiveness of induced clusters” value (hNEPT [1]) did it give?
Its value is “glucose responsive”.

And the “expression of endocrine differentiation genes vs. control or BMP-7+dorsomorphin” value [2]?
The value was “induces the expression of endocrine differentiation genes”.

What about the “percentage of C-peptide+ cells in hNEPT populations after treatment” value (hNEPT [3]) of the same molecule?
Its value is 30.43±4.07%.
